# According to publication PMC3712923, “Structure-Guided Design of an Engineered Streptavidin with Reusability to Purify Streptavidin-Binding Peptide Tagged Proteins or Biotinylated Proteins” (PLoS ONE, 2013):
# B1: synthetic 59-amino acid peptide with the full length SBP tag (peptide)
# peptide: CGGGGSTSGGSTSGGSTSGGGMDEKTTGWRGGHVVEGLAGELEQLRARLEHHPQGQREP
# notes: N-terminal cysteine for thiol coupling to the CM5 chip, then the 20-amino-acid glycine-rich linker; the limits are worked out as 1 Cys + 20 linker + 38 SBP = 59; also called SBP tag (peptide); synthetic SBP tag; source: synthetic peptide (Peptide 2.0 Inc.)
# Assays:
# Assay in all cases: SPR; BIAcoreX; synthetic SBP peptide thiol-coupled by its N-terminal cysteine to a CM5 chip, streptavidin variant as analyte; blank flow cell as reference
# Details in all cases: both partners purified
# [1] = biological target: T1, SAVSBPM18 engineered streptavidin (S27A, G48T) (UniProt P22629 25-183, S27A | G48T)
# T1 construct: streptavidin with the double mutation S27A, G48T; Secreted by means of the B. subtilis levansucrase (SacB) signal peptide; also called streptavidin SAVSBPM18; source: B. subtilis WB800[pSAVSBPM18], secreted, purified (biotin-agarose)
# T1 sequence (P22629 25-183 S51A/G72T): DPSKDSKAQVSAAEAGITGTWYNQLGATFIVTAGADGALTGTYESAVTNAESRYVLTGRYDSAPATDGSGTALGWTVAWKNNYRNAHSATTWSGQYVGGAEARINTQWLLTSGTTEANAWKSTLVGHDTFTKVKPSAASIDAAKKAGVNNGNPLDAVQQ
# [2] = biological target: T2, wild-type streptavidin (UniProt P22629 25-183)
# T2 construct: wild-type streptavidin, commercial; also called wt SAV; wt streptavidin; source: bought: Sigma Canada
# T2 sequence (P22629 25-183): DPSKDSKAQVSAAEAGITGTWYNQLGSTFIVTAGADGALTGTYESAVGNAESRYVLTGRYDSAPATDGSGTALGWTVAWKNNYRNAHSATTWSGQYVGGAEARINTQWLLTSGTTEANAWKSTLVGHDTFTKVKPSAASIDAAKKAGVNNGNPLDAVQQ
# [3] = biological target: T3, SAVSBPM12 streptavidin mutein (G48T) (UniProt P22629 25-183, G48T)
# T3 construct: streptavidin with the mutation G48T; Secreted by means of the SacB signal peptide; Its oligomeric state was not measured; also called G48T streptavidin mutein; source: B. subtilis WB800[pSAVSBPM12], secreted, purified (biotin-agarose), denatured and renatured, then iminobiotin-agarose
# T3 sequence (P22629 25-183 G72T): as the sequence (P22629 25-183 S51A/G72T) above, with A27S counted along it
binder,measurement,setting,value
B1,Kd,[1],7.67 nM
same,koff,[1],0.000821 s⁻¹
same,kon,[1],107000 M⁻¹ s⁻¹
same,Kd,[2],1.65 nM
same,koff,[2],0.000496 s⁻¹
same,kon,[2],300000 M⁻¹ s⁻¹
same,Kd,[3],1.99 nM
same,koff,[3],0.00056 s⁻¹
same,kon,[3],281000 M⁻¹ s⁻¹
